Experimental findings from PMC5992430, “C-Reactive Protein (CRP) and Leptin Receptor in Obesity: Binding of Monomeric CRP to Leptin Receptor” (Frontiers in Immunology, 2018) are described below.

In the test the target is T1, Soluble recombinant human leptin receptor (human, UniProt P48357 22-839).
T1 construct: leptin receptor (Ob R), human, soluble recombinant form; PDB 3V6O (CRH2 domain) was used only for docking; also called recombinant leptin receptor; Ob R; source: bought: Thermo Fischer, USA (synthesized in Escherichia coli)
T1 sequence (looked up): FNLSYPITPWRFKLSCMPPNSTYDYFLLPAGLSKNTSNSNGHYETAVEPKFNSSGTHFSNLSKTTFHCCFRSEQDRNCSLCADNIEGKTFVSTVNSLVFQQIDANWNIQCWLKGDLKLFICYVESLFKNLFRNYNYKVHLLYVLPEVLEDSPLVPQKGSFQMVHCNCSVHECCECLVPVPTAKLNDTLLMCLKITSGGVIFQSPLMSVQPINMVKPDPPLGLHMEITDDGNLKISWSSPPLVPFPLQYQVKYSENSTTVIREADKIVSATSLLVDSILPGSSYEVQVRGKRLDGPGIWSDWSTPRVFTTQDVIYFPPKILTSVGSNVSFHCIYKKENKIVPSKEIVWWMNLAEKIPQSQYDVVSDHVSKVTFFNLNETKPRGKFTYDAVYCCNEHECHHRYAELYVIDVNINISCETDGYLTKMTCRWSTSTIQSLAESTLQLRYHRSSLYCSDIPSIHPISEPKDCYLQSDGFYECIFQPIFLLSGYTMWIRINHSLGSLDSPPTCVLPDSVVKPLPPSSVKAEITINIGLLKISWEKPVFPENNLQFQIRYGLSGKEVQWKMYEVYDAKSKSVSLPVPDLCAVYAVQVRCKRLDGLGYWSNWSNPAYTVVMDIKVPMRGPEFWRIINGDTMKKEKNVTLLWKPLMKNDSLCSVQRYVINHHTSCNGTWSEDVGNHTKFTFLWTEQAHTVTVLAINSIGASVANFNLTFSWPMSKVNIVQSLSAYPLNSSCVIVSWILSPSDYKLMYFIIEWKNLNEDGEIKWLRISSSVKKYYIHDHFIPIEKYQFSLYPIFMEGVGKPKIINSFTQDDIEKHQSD
As to the kind of experiment: ELISA; solid phase binding assay; CRP forms or control proteins coated on a 96-well plate at 4°C overnight in Tris/HCl 0.05 M pH 7.4 (different concentrations, or 0.6 µg/ml for Figure 5B); blocked with 0.5% gelatin; leptin receptor 100 ng/ml in 50 µl PBS added for 1 h at RT; detected with anti-Ob R antibody and HRP anti-rabbit IgG. The note with it: both partners purified. A general note: ELISA stands for enzyme-linked immunosorbent assay.

B1: Monomeric CRP prepared from human serum CRP (natural protein, UniProt P02741 19-224, looked up)
chain: QTDMSRKAFVFPKESDTSYVSLKAPLTKPLKAFTVCLHFYTELSSTRGYSIFSYATKRQDNEILIFWSKDIGYSFTVGGSEILFEVPEVTVAPVHICTSWESASGIVEFWVDGKPRVRKSLKKGYTVGAEASIILGQEQDSFGGNFEGSQSLVGDIGNVNMWDFVLSPDEINTIYLGGPFSPNVLNWRALKYEVQGEVFTKPQLWP
notes: C-reactive protein, human, from serum; protomer of 206 amino acid residues as printed in the introduction; dissociated to the monomer with urea/EDTA; Same chain as native CRP, dissociated to monomers; also called s-mCRP; human mCRP; source: bought: Thermo Fischer, USA (human CRP); made monomeric with 8 M urea/10 mM EDTA at 37°C for 2 h
For the molecule B1, the Kd was determined as 10.2 nM.

A word on the Kd: it is the constant that tells how readily two partners part at equilibrium.
